These results are taken from the nanobody polyreactivity screen of Harvey et al. (2022).

The data set is described as follows: yeast display, Sf9 membrane polyspecificity reagent, FACS + sequencing; frameworks hold sequencing errors. In a few lines: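 Nanobodies from a synthetic yeast display library (Saccharomyces cerevisiae BJ5465), induced 36–48 hours with galactose, were stained 1 hour at 4 °C with 10% biotinylated, detergent-solubilized Sf9 membrane reagent, enriched on streptavidin microbeads, then FACS-sorted. Anti-HA (expression) and streptavidin (reagent binding) fluorescence set low and high (top ~1%) gates. Polyreactivity labels come from the gate of origin. Genes were colony-PCR amplified, MiSeq 2 × 250 sequenced and filtered by CDR length.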
Regarding “QVQLVESGGGLVQAGGSLRLSCAASGITFYPYAMGWYRQAPGKERELVAAITGSGGRTYYADSVKGRFTISRDNAKNTVYLQMNSLKPEDTAVYYCAKVARYPDMGYWGQGTQVTVSS”, the “polyreactivity (PSR sort gate)” value is “high polyreactivity”.

In the case of “QVQLVESGGGLVQAGGSLRLSCAASGRIFVWNAMGWYRQAPGKERELVAAITSSGGNTYYADSVKGRFTISRDNAKNNVYLQMNSLKQEDTAVYYCAAAGGAWARYRFNYWGQGTQVTVSS”, the “polyreactivity (PSR sort gate)” value is listed as “high polyreactivity”.

Regarding “QVQLVESGGGLVQAGGSLRLSCAASGIIFPNYAMGWYRQAPGKERELVAAITTSGTSTYYADSVKGRFTISRDNAKNTVYLQMNSLKPEDTAVYYCAARPTGHWGGRYYYWGQGTQVTVSS”, the “polyreactivity (PSR sort gate)” value is reported as “high polyreactivity”. Next, “QVQLVESGGGLVQAGGSLRLSCAASGITFFDYAMGWSRQAPGKERELVAAIDLSDGRTYYADSVKGRFTISRDNAKNTFYLQMNSLKPEDTAVYYCAAVSTSLYWAGYDYWGQGTQVTVSS”: “low polyreactivity”; “QVQIVESGGGLVQAGGSLRLSCAASGSIFYRNAMGWYRQAPGKERELVAAISSDGSTNYADSVKGRFTISRDNAKNTVYLQMNSLKPEDTAVYYCAAPWTQILDYWGQGTQVTVSS”: “low polyreactivity”; “QVQLVESGGGLVQAGGSLRLSCAASGRIFSINAMGWYRQAPGKERELVAAITSRGTSTYYADSVKGRFTISRDNAKNTVYLQMNSMKPEDTAVYYCAKKYVGGPWPRYFWGQGTQVTVSS”: “high polyreactivity”.

Regarding “QVQLVESGGGLVQAGGSLRLSSAASGNTFWHYAMGWYRQAPGKERELVAAITRSTGSTYYADSVKGRFTISRDNAKYSVYLQMNSLKPEDTAVYYCAADFYRHYFRVDSWGQGTQVTVSS”, the “polyreactivity (PSR sort gate)” value is “low polyreactivity”. Turning to “QVQLVESGGGLVQAGGSLRLSCAASGIIFDGNAMGWYRQAPGKERELVAAISSGGSTNYADSVKGRFTISRDNAKNTVYLQMNSLKPEDTAVYYCAARYTGKYEREYIYWGQGTQVTVSS”, the “polyreactivity (PSR sort gate)” value is given as “high polyreactivity”. In the case of “QVQLVESGGGLVQAGGSLRLSCAASGFTFRNYAMGWYRKAPGKERELVATIDRGTTSTYYADSVKGRFTISRDNAKNTVYLQMNSLKPEDTAVYYCAARAWRYGYGYWGQGTQVTVSS”, the “polyreactivity (PSR sort gate)” value is on record as “high polyreactivity”. Regarding “QVQLVESGGGLVQEGGSLRLSCAASRRTFRLYVMGWYSQAPGKERELVAAITWRGRTTYYAHSVKGRFTISRDNAKNTVYLQMNSLKPEDTAVYYCATTRYPRSYQEFGYWGQGTQGTVSS”, the “polyreactivity (PSR sort gate)” value was “high polyreactivity”. Then “QVQLVESGGGLVQAGGSLRLSCAASGFIFFINDMGWYRQAPGKERELVAAISWSGGSTYYADSVKGRFTISRDNAKNTVYLQMNSLKPEDTAVYYCNTDVPTAQYDYWGQGTQVTVSS”, with “low polyreactivity”; and “QVQLVESGGGLVQAGGSLRLSCAASGFTFRYYAMGWYRQAPGKERELVAAITSGDSTYYADSVKGRFTISRDKAKNTVYLQMNSLKPEDTAVYYCAAYSWLYEGYEYWGQGTQVTVSS”, with “high polyreactivity”; and “QVQLVESGGGLVQAGGSLRLSCAASGRTSFWNAMGWYRQAPGKERELVSAISASVGRTYYADSVKGRFTISRDNAKNTVYLQMNSLKPEDTAVYYSAKVYHAGTGYPSLGLDYWGQGTQVTVSS”, with “low polyreactivity”. Turning to “QVQLVESGGGLVQAGGSLRLSCAASGFTFLFNTMGWYRQAPGKERELVAGISRGGSTTYADSVKGRFTISRDNAKNTVYLQMNSLKPEDTAVYYCAARTRYNWRGYDYWGQGTQVTVSS”, the “polyreactivity (PSR sort gate)” value is on record as “high polyreactivity”. “QVQLVESGGGLVQAGGSLRLSCAASGSTFVGNAMGWYRQAPGKERELVAAITGGGGSTYYADSVKGRFTISRDNAKNTVYLQMNSLKPEDTAVYSCARDRTDYYVWYVRYYYWGQGTQVTVSS”: the “polyreactivity (PSR sort gate)” value is “low polyreactivity”.

On to “QVQLVQSGGGLVQAGGSLRLSCAASGSTFYLNAMGLYIQAPGKERELLAAITDAGSTNYADSVKGRFTISRDNAKNTVYLQMNSLKPEDTAVYYCNAEPRYYSGGHGYDYWGQGTQVTVSS”, for which the “polyreactivity (PSR sort gate)” value is given as “low polyreactivity”. Consider “QVQLVESGGRLVQAGGSLRLSCSASGLTFTNYAMGSYRQAPGKERELVAAISNSGATTYYADSVKGRFTISRDNAKNTVYVQLKSLKPEDTAVYYCAATSYTATWRYYYWGQGTQVTVSS”, for which the “polyreactivity (PSR sort gate)” value is “high polyreactivity”. For “QVQLEESGGGLVQAGGSLRLSCAASGSTNVKYAMGWYRQAPGKERELVAAITYSGDSTYYADSLKGRFTSSRDNAKNTVYLQINSLKPEDTAVYYWAAELVVRYMVSDYELEYWGQGTQVTVSS”, the “polyreactivity (PSR sort gate)” value is recorded as “low polyreactivity”. Take “QVQLVDSGGGLVQAGGSISLSCAPSGFTIVGNAMGWYRLAPGKERELVAAISSGDDTNDADSVKGRFTISRDNAKNTVYLQMYSLKPEDTAVYYCAAAYYYYVSGWFDYWGQGTQVTVSS”: the “polyreactivity (PSR sort gate)” value was “low polyreactivity”. In the case of “QVQLVESGGGLVQAGGSLRLSCAASGFTFTYNDMGWYRQAPGKEREFVAAISSTGGSTNYADSVKGRFTISRDNAKNTVYLQMNSLKPEDTAGYYCATESYDSYGLYDYWGQGTQVTVSS”, the “polyreactivity (PSR sort gate)” value is reported as “low polyreactivity”. In the case of “QVQLVESGGGLVQAGGSLRLSCAASGSIFGANAMGLYRQAPGKERELLATITLRDGSTYYADSVKGRFTISRDNAKNTVYLQRNSLKPEDTAVYYCATYYSAINYGCSKTILYDYWGQGTQVTVSS”, the “polyreactivity (PSR sort gate)” value was “low polyreactivity”.

For the sequence “QVQLVESGGGLVQAGGSLRLSCAASGSTYDSNAMGWYRQAPGKERELVAAIDWSGGSTYYADSVKGRFTISRDNAKNTVYLQMNSLKPADTAVYYCAADDSSINYGDFDYWGQGTQVTVSS”, the “polyreactivity (PSR sort gate)” value is on record as “low polyreactivity”.

Take “QVQLVESGGGLVQAGGSLRLSCAASGSISFLYTMGWYRQAPGKERELVAAITGSTASTYYADSVKGRFTISRDNAKNTVYLQMNSLKPEDTAVYYCNADSYPGLNPDFDYWGQGTQVTVSS”: the “polyreactivity (PSR sort gate)” value is reported as “low polyreactivity”. As to “QVQLVESGGGLVQAGGSLRLSCADSGRTFYQNAKGWYRQAPGKEREFVAAISWSSGSTYYADSVKGRFTISRDYAKNTVYLQMNSLKPEDTAVYYCAAYTSFPYIWYGYWGQGTQVTVSS”, the “polyreactivity (PSR sort gate)” value is given as “high polyreactivity”. “QVQLVESGGGLVQAGGSLRLSCAASGLTFLDYAMGWYRPAPGKERELVAAITSGGSTNYADSVKGRFTISRDNAKNTVYLQMNSLKPEDTAVYYCATDLEVSAYDYWGQGTQVTVSS”: the “polyreactivity (PSR sort gate)” value was “low polyreactivity”. For “QVQLVESGGGLVQAGGSLRLSCAASGRIFHFYAMGWYRQAPGKERELVASITWRGGRTYYADSVKGRFTISRDNAKNTVYLQMNSLKPEDTAVYYCAADFRSGFSSSTTPVQSDWGQGTQVTVSS”, the “polyreactivity (PSR sort gate)” value is “low polyreactivity”.

As to “QVQLVESGGGLVQAGGSLRLSCAASGRTFTFYTMGWYRQAPGKERELVARITGGGSTYYADSVKGRFTISRDNAKNTVYLQMNSLKPEDTAVYYCAAASGTKRLYRGTRGDYWGQGTQVTVSS”, the “polyreactivity (PSR sort gate)” value is “low polyreactivity”. As to “QVQLVESGGGLVQAGGSLRLSCAASGRIFNVYAMGWYRQAPGKERELVASITSAGSTYYADSVKGRFTISRDNAKNTVYLQMNSLKPEDTPVYDCAADSYSVYYYTYDSWGQGTQVTVSS”, the “polyreactivity (PSR sort gate)” value is recorded as “low polyreactivity”. Then “QVQRVESGGGLVQAGGSLRLSCAASGFTLLPNAMGWYRQAPGKETELVAAITASGGRTYYADSVKGRFTISRDNAKNTVYLQMNSLKPEDTAVYSCNADWQDDLAGYDVDYWGQGTQVTGSS”, with “low polyreactivity”. Consider “QVQLVESGGGLVQAGGSLRLSCAASGRTFRQYAMGWYRQAPGKERELVAAIRTNGGRTYYADSVKGRFTISRDNAKNTVYLQMNSLKPEDTAVYYCAVYDVVQGVLFDYWGQGTQVTVSS”, for which the “polyreactivity (PSR sort gate)” value is “high polyreactivity”. As for “QVQLVESGGGLVQAGGSLRLSCAASGRIFPYNAMGWYRQAPGKERELVAAINWSGGSTYYADSVKGRFTISRDNAKNTVYLQMNSLKPEDTAVYYCAAVYRYNSDPDYDYWGQGTQVTVSS”, the “polyreactivity (PSR sort gate)” value was “high polyreactivity”. Then “QVQLVESGAGLVQAGGSLRLSCAASGSIFNYYAMVWYRQAPGKERELFAGITTSGGSTYYADSVKGSFTISRDNAKNSVYLQMKSLKPVDTAVYYCGAYDHISSTYFLDDSWGQGTQVTVSS”, with “low polyreactivity”; and “QVHLVESGGGLVQAGGSLRLSCAASGSTNYYAMGRYRQAPGKEREFVSAISRDASSTYYADSVKGRFTISRDNAKNTVYLQMNSLKPEDTAVYYCAARIIRFSTSADKLVTSRYYYWGQGTQVTVSS”, with “high polyreactivity”.

“QVQLVESGGGLVQAGGSLRLSSAASGSNFPPNAMGWYRQAPGKEREFVASITSSGGITNYADSVKGRFTISRDNAKNTVYLQMNSLKPEDTAVYYCAAKYYGGTRFRPYGYWGQGTQVTVSS”: the “polyreactivity (PSR sort gate)” value is “high polyreactivity”. Take “QVQLVESGGGLVQAGGSLRLSCAASGSIFVEYAMGVYREAPGKERELVATINLSAGSTYYADSVKGRFTISRDNAMNTGYLQMNRLKPEDTAVYYCAALYYWDQPQLEFSYLGQGTQVTVSS”: the “polyreactivity (PSR sort gate)” value is given as “low polyreactivity”. Take “QVQLVESGGGLVQAGGSLRISCAASGYTSIIYAMGWYRQAPGTERECVASIRGRSGSTYYADSVKGRFTISRDNAKNTVYLQMNSLKPEDTAVYYCAARARYVNWQGFDYWGQGTQVTVSS”: the “polyreactivity (PSR sort gate)” value is “high polyreactivity”.

On to “QVQLVESGGGLVQAGGSLRLSCAASGSIFSYYAMGWYRQSPGNERELVAAITWSGGSTNYADSVKGRFTISRDNAKNTVYLQMTSLKPEDTAVYYCAADYWAWGKNEYDYWGQGTQVTVSS”, for which the “polyreactivity (PSR sort gate)” value was “low polyreactivity”. Turning to “QVQLVESGGGLVQAGCSLRLICAAAGIIFSSYAMGWYRQAPGKERELVAAISWNGGRTYYADSVKGRFTISRDNAKNTVYLQMNSLKPEDTAVYYCAAPHSVPDLHSGDYWGQGTQVTVSS”, the “polyreactivity (PSR sort gate)” value is on record as “low polyreactivity”. As for “QVQLVESGGGLVQAGGSLRLSCAASGSTLKYNAMGWYRQAPGKEREFVASITLSAGRTYYADSVKGRFTISRDNAKNTVYLQMNSLKPEDTAVYYCAARRYFSYRYDYWGQGTQVTVSS”, the “polyreactivity (PSR sort gate)” value is recorded as “high polyreactivity”. For the sequence “QVHLVESGGGLDQAGGSLRLICPASGLIFYRYAMGWYRQAPGKERELVAAITTNGARTYYADSVKGRFTISRDNAKNTVYLQMNSLIPEDTAVYYCAGYGAGKFWAEHNYWGQGTQVTVSS”, the “polyreactivity (PSR sort gate)” value is “high polyreactivity”. Then “QDQLVESGGGLVQAGGSLRLSCAASGLIFFFYPMGWYRQAPGKERELVASISGGGITYYADSVKGRFTISRDNAKNTVYLQMNSLKQEDTPVIKNDYWGQGTQVTLSS”, with “low polyreactivity”.
